Reference: PMC2789238

Key:
[1] = target: ERK1, not dual-phosphorylated (inactive ERK dimer in U0126-inhibited embryos) (L. pictus (endogenous in eggs and embryos)); experiment: native gel or EMSA; whole-cell extracts of eggs/embryos at times after fertilization (control, or U0126 15 min before fertilisation); non-denaturing gel to maintain ERK as a dimer; Western blot with anti-dual-phosphorylated ERK or anti-ERK antibodies
[2] = target: dual-phosphorylated ERK1 (fully activated ERK bis-phosphodimer) (L. pictus (endogenous in eggs and embryos)); experiment: as above
[3] = target: cdk2 (cyclin-associated kinase activity in sea urchin cell extracts) (L. pictus (endogenous in eggs and embryos))

In the case of “ERK1, not dual-phosphorylated (inactive ERK dimer in U0126-inhibited embryos) (enzyme)”, the stoichiometry N [1] is reported as 2.

“dual-phosphorylated ERK1 (fully activated ERK bis-phosphodimer) (enzyme)” gave a stoichiometry N [2] of 2.

Work on “p27^kip1 recombinant protein (from UniProt P46414 1-197) (natural protein)” yielded an inhibition of Rb C-terminus phosphorylation in the 4 min whole-cell extract with a mixture of Rb and MBP as substrates, with and without p27^kip1 [3] of 97%.
